Measurements as given in the Human Domainome abundance scans (Beltran et al. 2025).

B1: Zinc finger homeobox protein 3, residues 2147 to 2202; numbered along this chain, Q15911 (parent)
chain: RPRTRITDDQLRVLRQYFDINNSPSEEQIKEMADKSGLPQKVIKHWFRNTLFKERQ

Variants of: B1
Assay: abundance fitness (aPCA) (normalised: wild type 0, dead -1); higher = more abundant; growth selection in yeast, the domain comes from the species named
Details: Homo sapiens

Abundance fitness, by site and new letter:
V42: K -0.051, T -0.027, H -0.374, Y -0.18, L -0.103, M -0.218, A -0.098, C 0.058, S -0.139, I -0.074, N -0.15, P -0.618, F -0.293, D 0.094, W -0.119, R -0.028
K35: P -0.998, L -0.163, G -0.402, Q 0.014, Y -0.357, W -0.346, M -0.216, N -0.138, R -0.175, H -0.536, T -0.189, S -0.222, F -0.336, I -0.329
K41: D -0.054, I -0.022, C 0.126, L -0.004, G 0.108, E 0.01, Q 0.095, F -0.274, A -0.056, N -0.053, P -0.259, W -0.361, V -0.108, M -0.011, R -0.142, Y -0.389, S -0.02
I43: N -0.959, M -0.706, Q -1, P -1.05, C -0.349, T -0.54, V -0.015, D -1.12, G -1, L -0.443, S -0.987, F -0.864, K -0.945, A -0.534, Y -1.08, R -1.21, E -0.767
G37: F -0.504, E -0.155, A -0.176, S -0.151, K -0.048, N -0.124, D -0.103, C -0.037, Q -0.245, M -0.341, V -0.427, H -0.361, L -0.278, Y -0.424, R -0.071, T -0.342, I -0.762, W -0.535
S36: L 0.019, E -0.14, M -0.157, D -0.669, P -0.853, W -0.182, I 0.078, K -0.706, F -0.099, C -0.156, A 0.045, Y -0.178, N 0.018, H -0.057, T 0.127, G -0.449, R -0.828, V -0.031
L38: H -1.1, Q -0.649, M -0.302, V -0.008, Y -1.05, G -0.857, F -0.762, S -0.712, T -0.449, K -1.04, C -0.143, P -0.858, N -1.15, E -0.706, D -1.02, R -0.971, I -0.124
Q40: E 0.105, D -0.06, V -0.046, I -0.162, F -0.172, L 0.072, K 0.193, P 0.121, G -0.073, W -0.068, H 0.025, C -0.118, N 0.102, S 0.014, R 0.022, M -0.103, T 0.054, Y 0.088
K44: V -0.107, H -0.131, T -0.246, F -0.175, L -0.03, R -0.069, S -0.214, N -0.334, I -0.102, G -0.11, M -0.2, D -0.08, E -0.146, A -0.096
P39: G -0.016, I -0.199, M -0.258, L -0.329, T -0.031, W -0.564, Y -0.284, Q -0.167, S 0.045, A -0.068, D -0.015, C -0.192, F -0.746, R -0.156, N -0.249, H -0.079, E 0.009, V -0.119
